Legend:
Type in all cases: in vivo
[1] = system: Arabidopsis thaliana T1 plants; experiment: Isoxaflutole tolerance of transgenic Arabidopsis thaliana T1 plants (spray, bleached leaf area grade, damage score); settings: Table 11; for Classification and statistics of the grade of pesticide damage Grade 0: number of plants at grade 0; for Classification and statistics of the grade of pesticide damage Grade 1: number of plants at grade 1; for Classification and statistics of the grade of pesticide damage Grade 2: number of plants at grade 2; for Classification and statistics of the grade of pesticide damage Grade 3: number of plants at grade 3; for Scores: pesticide damage score;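 on Scores: Weighted damage index from 0 to 100 where higher means more damage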
Outline: (§1)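 T1 transformants selected by glufosinate; 18-day-old plants, with empty-vector and wild-type controls, sprayed with topramezone (25–200 g ai/ha), isoxaflutole (35–280 g ai/ha) or mesotrione (52.5–420 g ai/ha), water as 0×. Bleached leaf area fraction scored at 7 DAT as grades 0–3.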

[2] = system: Arabidopsis thaliana T1 plants; experiment: Topramezone tolerance of transgenic Arabidopsis thaliana T1 plants (spray, bleached leaf area grade, damage score); settings: Table 10; for Classification and statistics of the grade of pesticide damage Grade 0: number of plants at grade 0; for Classification and statistics of the grade of pesticide damage Grade 1: number of plants at grade 1; for Classification and statistics of the grade of pesticide damage Grade 2: number of plants at grade 2; for Classification and statistics of the grade of pesticide damage Grade 3: number of plants at grade 3; for Scores: pesticide damage score
Outline: as §1

[3] = system: Arabidopsis thaliana T1 plants; experiment: Mesotrione tolerance of transgenic Arabidopsis thaliana T1 plants (spray, bleached leaf area grade, damage score); parameters: Scores: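 damage score 0-100 computed as Σ(N×S)/(T×M)×100 over grades 0-3 with higher meaning more damage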; settings: Table 12; for Classification and statistics of the grade of pesticide damage Grade 0: number of plants at grade 0; for Classification and statistics of the grade of pesticide damage Grade 1: number of plants at grade 1; for Classification and statistics of the grade of pesticide damage Grade 2: number of plants at grade 2; for Classification and statistics of the grade of pesticide damage Grade 3: number of plants at grade 3; for Scores: pesticide damage score
Outline: as §1

Molecule | Resistance evaluation ([1]; isoxaflutole 140 g ai/ha (2×)) | Classification and statistics of the grade of pesticide damage Grade 0 ([1]; isoxaflutole 140 g ai/ha (2×)) | Classification and statistics of the grade of pesticide damage Grade 1 ([1]; isoxaflutole 140 g ai/ha (2×)) | Classification and statistics of the grade of pesticide damage Grade 2 ([1]; isoxaflutole 140 g ai/ha (2×)) | Classification and statistics of the grade of pesticide damage Grade 3 ([1]; isoxaflutole 140 g ai/ha (2×)) | Scores ([1]; isoxaflutole 140 g ai/ha (2×)) | Resistance evaluation ([1]; isoxaflutole 280 g ai/ha (4×)) | Classification and statistics of the grade of pesticide damage Grade 0 ([1]; isoxaflutole 280 g ai/ha (4×)) | Classification and statistics of the grade of pesticide damage Grade 1 ([1]; isoxaflutole 280 g ai/ha (4×)) | Classification and statistics of the grade of pesticide damage Grade 2 ([1]; isoxaflutole 280 g ai/ha (4×)) | Classification and statistics of the grade of pesticide damage Grade 3 ([1]; isoxaflutole 280 g ai/ha (4×)) | Scores ([1]; isoxaflutole 280 g ai/ha (4×)) | Resistance evaluation ([2]; topramezone 100 g ai/ha (4×)) | Classification and statistics of the grade of pesticide damage Grade 0 ([2]; topramezone 100 g ai/ha (4×)) | Classification and statistics of the grade of pesticide damage Grade 1 ([2]; topramezone 100 g ai/ha (4×)) | Classification and statistics of the grade of pesticide damage Grade 2 ([2]; topramezone 100 g ai/ha (4×)) | Classification and statistics of the grade of pesticide damage Grade 3 ([2]; topramezone 100 g ai/ha (4×)) | Scores ([2]; topramezone 100 g ai/ha (4×)) | Resistance evaluation ([2]; topramezone 200 g ai/ha (8×)) | Classification and statistics of the grade of pesticide damage Grade 0 ([2]; topramezone 200 g ai/ha (8×)) | also measured
HPPDm-8-02: nucleotide sequence encoding AsHPPDm-A111T-K351N-F372A-F383W with mutated C-terminal; vector DBN11789 (nucleic acid, mutated C-terminus; HPPDm-8-02 Nucleotide Sequence, vector DBN11789) DNA: ATGCCACCTACTCCAGCTACAGCTACTGGTGCTGCTGCTGCTGCCGTTACTCCTGAGCACGCTGCCAGGTCATTCCCCAGGGTGGTTCGCGTGAACCCCAGATCTGATAGGTTCCCAGTTCTGAGCTTCCACCATGTTGAGCTGTGGTGCGCTGATGCTGCTTCTGCTGCTGGCAGGTTCTCTTTCGCTCTTGGTGCTCCACTCGCTGCTAGATCTGATCTGTCTACAGGAAATAGCGCTCATGCCTCACTCCTGCTTCGCTCAGGTGCTTTGGCCTTCCTCTTCACCGCTCCATATGCTCCCCCACCTCAGGAGGCTGCTACTGCTGCTACTACAGCCTCCATTCCAAGCTTCTCAGCTGATGCCGCTAGAACCTTCGCTGCTGCTCATGGACTTGCCGTGAGGTCTGTTGGTGTTCGCGTGGCTGATGCTGCTGAGGCTTTCAGAGTTTCCGTTGCCGGCGGAGCTAGGCCAGCTTTCGCTCCTGCTGATTTGGGACATGGTTTCGGCCTGGCTGAGGTTGAGCTTTACGGTGACGTGGTTCTCCGCTTCGTGTCTTACCCAGATGAGACTGACCTGCCTTTCCTTCCCGGCTTCGAGAGAGTTTCCTCTCCTGGTGCCGTGGATTACGGCCTGACAAGGTTCGACCACGTGGTTGGAAACGTTCCCGAGATGGCTCCAGTGATCGATTACATGAAGGGCTTCCTTGGATTCCATGAGTTCGCCGAGTTCACTGCTGAGGACGTGGGAACCACTGAGTCCGGTTTGAACTCTGTGGTTCTCGCCAACAATTCTGAGGCTGTTTTGCTCCCTCTGAATGAGCCTGTGCATGGAACCAAGAGGAGAAGCCAGATTCAAACTTACCTGGAGTACCACGGTGGCCCTGGAGTTCAGCATATCGCCCTTGCTTCTAATGATGTGTTGCGCACACTCAGAGAGATGCGCGCCAGAACCCCCATGGGAGGTTTCGAGTTCATGGCCCCACCACAGGCTAAGTACTACGAGGGCGTTAGAAGGATTGCTGGAGACGTGTTGAGCGAGGAGCAGATCAATGAGTGCCAAGAGCTGGGTGTTCTTGTGGATAGGGATGACCAGGGCGTTCTGCTTCAAATTGCCACTAAGCCAGTGGGCGACCGCCCTACATTCTGGCTTGAGATGATTCAAAGAATCGGCTGCATGGAGAAGGATGAGGTTGGACAGGAGTACCAAAAGGGCGGATGCGGTGGCTTCGGAAAGGGTAACTTCAGCGAGTTGTTCAAGTCAATCGAGGAGTATGAGAAGACCTTGGAGGCCAAGCAGCTCGTGGGTTGA | Highly resistant | 16 | 0 | 0 | 0 | 0 | Highly resistant | 16 | 0 | 0 | 0 | 0 | Highly resistant | 16 | 0 | 0 | 0 | 0 | Highly resistant | 16 | Classification and statistics of the grade of pesticide damage Grade 1 ([2]; topramezone 200 g ai/ha (8×)): 0; Classification and statistics of the grade of pesticide damage Grade 2 ([2]; topramezone 200 g ai/ha (8×)): 0; Classification and statistics of the grade of pesticide damage Grade 3 ([2]; topramezone 200 g ai/ha (8×)): 0; Scores ([2]; topramezone 200 g ai/ha (8×)): 0; Resistance evaluation ([3]; mesotrione 210 g ai/ha (2×)): Highly resistant; Classification and statistics of the grade of pesticide damage Grade 0 ([3]; mesotrione 210 g ai/ha (2×)): 16; Classification and statistics of the grade of pesticide damage Grade 1 ([3]; mesotrione 210 g ai/ha (2×)): 0; Classification and statistics of the grade of pesticide damage Grade 2 ([3]; mesotrione 210 g ai/ha (2×)): 0; Classification and statistics of the grade of pesticide damage Grade 3 ([3]; mesotrione 210 g ai/ha (2×)): 0; Scores ([3]; mesotrione 210 g ai/ha (2×)): 0; Resistance evaluation ([3]; mesotrione 420 g ai/ha (4×)): Highly resistant; Classification and statistics of the grade of pesticide damage Grade 0 ([3]; mesotrione 420 g ai/ha (4×)): 16; Classification and statistics of the grade of pesticide damage Grade 1 ([3]; mesotrione 420 g ai/ha (4×)): 0; Classification and statistics of the grade of pesticide damage Grade 2 ([3]; mesotrione 420 g ai/ha (4×)): 0; Classification and statistics of the grade of pesticide damage Grade 3 ([3]; mesotrione 420 g ai/ha (4×)): 0; Scores ([3]; mesotrione 420 g ai/ha (4×)): 0
HPPDm-9-02: nucleotide sequence encoding AsHPPDm-A106G-K351N-F372A-F383W with mutated C-terminal; vector DBN11790 (nucleic acid, mutated C-terminus; HPPDm-9-02 Nucleotide Sequence, vector DBN11790) DNA: ATGCCACCTACTCCAGCTACAGCTACTGGTGCTGCTGCTGCTGCCGTTACTCCTGAGCACGCTGCCAGGTCATTCCCCAGGGTGGTTCGCGTGAACCCCAGATCTGATAGGTTCCCAGTTCTGAGCTTCCACCATGTTGAGCTGTGGTGCGCTGATGCTGCTTCTGCTGCTGGCAGGTTCTCTTTCGCTCTTGGTGCTCCACTCGCTGCTAGATCTGATCTGTCTACAGGAAATAGCGCTCATGCCTCACTCCTGCTTCGCTCAGGTGCTTTGGCCTTCCTCTTCACCGCTCCATATGCTCCCCCACCTCAGGAGGGTGCTACTGCTGCTGCTACAGCCTCCATTCCAAGCTTCTCAGCTGATGCCGCTAGAACCTTCGCTGCTGCTCATGGACTTGCCGTGAGGTCTGTTGGTGTTCGCGTGGCTGATGCTGCTGAGGCTTTCAGAGTTTCCGTTGCCGGCGGAGCTAGGCCAGCTTTCGCTCCTGCTGATTTGGGACATGGTTTCGGCCTGGCTGAGGTTGAGCTTTACGGTGACGTGGTTCTCCGCTTCGTGTCTTACCCAGATGAGACTGACCTGCCTTTCCTTCCCGGCTTCGAGAGAGTTTCCTCTCCTGGTGCCGTGGATTACGGCCTGACAAGGTTCGACCACGTGGTTGGAAACGTTCCCGAGATGGCTCCAGTGATCGATTACATGAAGGGCTTCCTTGGATTCCATGAGTTCGCCGAGTTCACTGCTGAGGACGTGGGAACCACTGAGTCCGGTTTGAACTCTGTGGTTCTCGCCAACAATTCTGAGGCTGTTTTGCTCCCTCTGAATGAGCCTGTGCATGGAACCAAGAGGAGAAGCCAGATTCAAACTTACCTGGAGTACCACGGTGGCCCTGGAGTTCAGCATATCGCCCTTGCTTCTAATGATGTGTTGCGCACACTCAGAGAGATGCGCGCCAGAACCCCCATGGGAGGTTTCGAGTTCATGGCCCCACCACAGGCTAAGTACTACGAGGGCGTTAGAAGGATTGCTGGAGACGTGTTGAGCGAGGAGCAGATCAATGAGTGCCAAGAGCTGGGTGTTCTTGTGGATAGGGATGACCAGGGCGTTCTGCTTCAAATTGCCACTAAGCCAGTGGGCGACCGCCCTACATTCTGGCTTGAGATGATTCAAAGAATCGGCTGCATGGAGAAGGATGAGGTTGGACAGGAGTACCAAAAGGGCGGATGCGGTGGCTTCGGAAAGGGTAACTTCAGCGAGTTGTTCAAGTCAATCGAGGAGTATGAGAAGACCTTGGAGGCCAAGCAGCTCGTGGGTTGA | Highly resistant | 16 | 0 | 0 | 0 | 0 | Highly resistant | 16 | 0 | 0 | 0 | 0 | Highly resistant | 16 | 0 | 0 | 0 | 0 | Highly resistant | 16 | Classification and statistics of the grade of pesticide damage Grade 1 ([2]; topramezone 200 g ai/ha (8×)): 0; Classification and statistics of the grade of pesticide damage Grade 2 ([2]; topramezone 200 g ai/ha (8×)): 0; Classification and statistics of the grade of pesticide damage Grade 3 ([2]; topramezone 200 g ai/ha (8×)): 0; Scores ([2]; topramezone 200 g ai/ha (8×)): 0; Resistance evaluation ([3]; mesotrione 210 g ai/ha (2×)): Highly resistant; Classification and statistics of the grade of pesticide damage Grade 0 ([3]; mesotrione 210 g ai/ha (2×)): 16; Classification and statistics of the grade of pesticide damage Grade 1 ([3]; mesotrione 210 g ai/ha (2×)): 0; Classification and statistics of the grade of pesticide damage Grade 2 ([3]; mesotrione 210 g ai/ha (2×)): 0; Classification and statistics of the grade of pesticide damage Grade 3 ([3]; mesotrione 210 g ai/ha (2×)): 0; Scores ([3]; mesotrione 210 g ai/ha (2×)): 0; Resistance evaluation ([3]; mesotrione 420 g ai/ha (4×)): Highly resistant; Classification and statistics of the grade of pesticide damage Grade 0 ([3]; mesotrione 420 g ai/ha (4×)): 16; Classification and statistics of the grade of pesticide damage Grade 1 ([3]; mesotrione 420 g ai/ha (4×)): 0; Classification and statistics of the grade of pesticide damage Grade 2 ([3]; mesotrione 420 g ai/ha (4×)): 0; Classification and statistics of the grade of pesticide damage Grade 3 ([3]; mesotrione 420 g ai/ha (4×)): 0; Scores ([3]; mesotrione 420 g ai/ha (4×)): 0

Reference: US20250043302A1, “MUTATED HYDROXYPHENYLPYRUVATE DIOXYGENASE POLYPEPTIDE, AND CODING GENE AND USE THEREOF” (BEIJING DABEINONG BIOTECHNOLOGY CO., LTD., priority 2021, published 2025)
